Data from patent US7422849B1, “Method for determining expression of a PI3 kinase gene” (Ludwig Institute for Cancer Research, priority 1992, dated 2008).
Like-named read-outs stand apart in the source and are kept apart here.

Assays:
p85α [1] = target: T1, p85α (Bos taurus, UniProt P23727); experiment: Binding of baculovirus expressed p85α to peptide columns; design: made in house; host or cells: Sf9 insect cells (baculovirus pAcC4-p85α); species or system bovine
Method: (§1) Proteins were diluted in binding buffer (50 mM phosphate buffer (pH 7.2), 150 mM NaCl, 0.02% Triton X-100, 2 mM EDTA and 200 μM sodium orthovanadate), mixed with the appropriate peptide affinity resin and then allowed to bind for 2 h at 4° C. with rotation. The column material was washed repeatedly (>6×) with 50 column volumes of the same buffer and then with various elution buffers containing NaCl, urea or detergents. Bound proteins were either assayed for PI3-kinase activity or were removed from the column by boiling in SDS-PAGE sample buffer and then analysed by SDS-PAGE.
Baculovirus expressed bovine p85α and p85β were chosen to test these columns (Otsu et al, 1991).

[2] = PI3-kinase assay on immunoprecipitates from transfected COS-1 cells; format: biochemical; conditions: anti-p110 antiserum
Method: (§2) The assay for PI3-kinase activity was carried out as described by Whitman et al. (1985).
For transient expression of p85α in COS-1 cells the coding region for p85α was cloned into the adenovirus late promoter based expression vector pMT2 (Kaufman et al, 1989) as previously described (Otsu et al, 1991). For expression of the p110 cDNA plasmid pSG5-p110 was constructed as follows. The 3.4 kb BamHl-HindIII fragment from cDNA p2.1 was ligated into pSG5 (Stratagene) cut with BamHl and BglII, the HindIII and BglII overhangs of p2.1 and pSG5 respectively, being filled in with Klenow polymerase. This gave construct pSG5.2. Plasmid pBS/race (above) was digested with EcoRl and Hindlll, the 350 bp band gel purified by electroelution (Maniatis et al, 1982) and further digested with Sau3Al and Bsml. This mixture was then added to the gel purified Bsml-BstMl fragment from p2.1 and ligated in a three fragment ligation to pSG5.2 digested with BamHl and BstXl. […] Lysates were analysed by immunoprecipitation with anti-p85α polyclonal antiserum or with anti-p110 C-terminal peptide antiserum. Immunocomplexes collected on Protein A-Sepharose beads were analysed either on 10% SDS-PAGE gels followed by autoradiography or subjected to in vitro PI3-kinase assays as described.

[3] = PI3-kinase assay on immunoprecipitates from baculovirus infected Sf9 cells; format: biochemical; conditions: expressed in Sf9 cells
Method: as §2
To clone the p110 coding region into the baculovirus transfer vector p36C (Page, 1989) a Sau 3A1 site (GGATCA) present 10 nucleotides upstream from the initiation codon (see FIG. 9) was changed to a BamHI (GGATCC site by PCR mediated mutagenesis. Briefly, a sense oligonucleotide substituting C for A at position 6 of the Sau3A1 site was used in a PCR reaction with an antisense primer comprising nucleotides (102-124) of the p110 sequence. (see FIG. 9) using Vent polymerase (New England Biolabs). Template DNA was random-primed first strand cDNA prepared from SGBAF-1 cell mRNA as described above; PCR conditions: 94° C. 1 min, 50° C. 1 min, 72° C. 2 min, 35 cycles. The PCR product was digested with BamHl-EcoNl and a 118 bp fragment isolated from a low melting point agarose gel. […] The BamHl-EcoNl fragment of p110/(BamHl) was sequenced and found to agree with that previously determined. […] Cells were harvested and lysed 2 days post-infection in EB lysis buffer (20 mM Tris-HCl (pH 7.4), 50 mM NaCl, 50 mM NaF, 1% NP40, 1 mM EDTA, 500 μM sodium orthovanadate, 2 mM PMSF, 100 Kallikrein inhibitor units of Aprotinin ml^−1) (Kazlauskas and Cooper, 1989) and lysates were analysed by […].

CSF-1 receptor = target: T2, CSF-1 receptor (Homo sapiens, UniProt P07333); experiment: In vitro association of PI3-kinase activity with the CSF-1 receptor; format: binding; conditions: Sf9 cell lysates, receptor phosphorylated with ATP before incubation
T2 construct: made in house; host or cells: Sf9 insect cells (baculovirus)
Method: This assay was performed essentially as described by Kazlauskas and Cooper (1990). Sf9 cells were infected as already described and lysed 48 h post-infection in EB lysis buffer. CSF-1 receptor was immunoprecipitated from Sf9 cells and collected on Protein A-Sepharose beads. The immunocomplex was then subjected to extensive washing (3 times with EB lysis buffer, twice with kinase buffer; 50 mM HEPES (pH 7.4), 150 mM NaCl, 0.02% Triton X-100, 12 mM MgCl2, 2 mM MnCl2, 10% glycerol, 500 μM sodium orthovanadate) and the receptor phosphorylated for 15 min at 20° C. with ATP. The precipitates were then washed again to remove free ATP and incubated for 2 h at 4° C. with cell lysates prepared from Sf9 cells infected with viruses expressing (i) p85α, (ii) p110 or (iii) co-infected with viruses expressing p85α and p110. The immune complexes were washed and assayed for associated PI3-kinase activity.

bovine brain PI3-kinase = target: T3, bovine brain PI3-kinase (Bos taurus, UniProt P23727); experiment: Binding of partially purified bovine brain PI3-kinase to peptide affinity columns
T3 construct: P13-kinase purified from bovine brain is a complex of p85α and p10; from tissue; host or cells: bovine brain
Method: as §1

Y751 phosphopeptide = experiment: phosphopeptide affinity resin, single incubation; PI3-kinase assay
p85α [4] = target: T1, p85α; experiment: Retention of p85α by GST-p110 fragments on glutathione sepharose column; format: binding; design: made in house; host or cells: baculovirus / insect cells; conditions: GST fusion protein expressed in bacteria
From the text: (§3) The interation of the p85 and p110 subunits of PI3-kinase are thought to be required for the activity of the kinase in mammalian cells. Thus inhibiting the interaction between the subunits could provide a means of inhibiting the activity of this signal transduction pathway. In order to design reagents to p110 which will block the interaction, it is useful to define the region of […] which binds to the p85 subunits. To do this a series of mutants were constructed which express various domains of the […] protein (FIG. 23B). These fragments were expressed as GST fusion proteins in bacteria. The proteins were then bound to a glutathione sepharose column (Pharmicia) according to the manufacturer's instructions (Panayotou G et al (1992) Embo J 11:4261-4272). The ability of these protein fragments to bind the p85 subunits was assessed by the ability of the column specifically to retain p85 subunits purified from baculovirus (Otsu et al (1991) Cell 65:91-104). […] To further characterise the binding domain, deletion mutants and PCR fragments were made from the p110-N fragment as shown in FIG. 24. […] Removal of a further 20 amino acids from either the amino or carboxy termini led to loss of binding activity. Now that this domain has been identified it allows the design of specific peptides, antibodies or small molecules which can inhibit the interaction between the subunits.

p85β = target: T4, p85β (Bos taurus, UniProt P23726); experiment: Retention of p85β by GST-p110 fragments on glutathione sepharose column; format: binding; conditions: GST fusion protein expressed in bacteria
T4 construct: made in house; host or cells: baculovirus / insect cells
From the text: as §3

bovine p85α = target: T5, bovine p85α (bovine, UniProt P23727 1-724); experiment: deletion mutants and PCR fragments of p110-N; retention of p85
T5 construct: Expressed by baculovirus in Sf9 cells or from pMT2-p85α in COS-1 cells, or native from bovine brain; which one is said under assay; also called 85 kD subunit; baculovirus expressed p85α
From the text: as §3

bovine p85β = target: T6, bovine p85β (bovine, UniProt P23726 1-724); experiment: as above
T6 construct: Expressed by baculovirus in Sf9 cells or in COS-1 cells; also called baculovirus expressed p85β
From the text: as §3

T1 sequence (P23727 whole entry): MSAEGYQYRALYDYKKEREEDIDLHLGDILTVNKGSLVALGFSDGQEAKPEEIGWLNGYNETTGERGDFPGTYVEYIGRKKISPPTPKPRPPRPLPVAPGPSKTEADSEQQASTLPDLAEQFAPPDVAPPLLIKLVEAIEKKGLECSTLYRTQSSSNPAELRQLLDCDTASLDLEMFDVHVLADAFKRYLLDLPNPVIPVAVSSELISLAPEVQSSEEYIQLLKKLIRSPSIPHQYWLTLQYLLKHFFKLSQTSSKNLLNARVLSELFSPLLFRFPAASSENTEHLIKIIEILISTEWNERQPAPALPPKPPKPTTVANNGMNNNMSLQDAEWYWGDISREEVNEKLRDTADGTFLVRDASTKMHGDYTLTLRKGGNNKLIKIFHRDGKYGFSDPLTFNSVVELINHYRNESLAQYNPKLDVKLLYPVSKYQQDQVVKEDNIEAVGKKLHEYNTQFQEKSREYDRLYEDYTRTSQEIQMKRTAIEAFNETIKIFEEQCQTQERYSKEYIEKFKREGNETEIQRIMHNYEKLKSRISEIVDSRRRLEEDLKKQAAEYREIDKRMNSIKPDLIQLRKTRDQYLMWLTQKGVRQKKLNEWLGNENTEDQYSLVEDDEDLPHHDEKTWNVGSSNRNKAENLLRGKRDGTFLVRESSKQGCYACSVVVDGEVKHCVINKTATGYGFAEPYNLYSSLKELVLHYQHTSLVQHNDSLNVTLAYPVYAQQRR
T4 sequence (P23726 whole entry, the tested form may be a part): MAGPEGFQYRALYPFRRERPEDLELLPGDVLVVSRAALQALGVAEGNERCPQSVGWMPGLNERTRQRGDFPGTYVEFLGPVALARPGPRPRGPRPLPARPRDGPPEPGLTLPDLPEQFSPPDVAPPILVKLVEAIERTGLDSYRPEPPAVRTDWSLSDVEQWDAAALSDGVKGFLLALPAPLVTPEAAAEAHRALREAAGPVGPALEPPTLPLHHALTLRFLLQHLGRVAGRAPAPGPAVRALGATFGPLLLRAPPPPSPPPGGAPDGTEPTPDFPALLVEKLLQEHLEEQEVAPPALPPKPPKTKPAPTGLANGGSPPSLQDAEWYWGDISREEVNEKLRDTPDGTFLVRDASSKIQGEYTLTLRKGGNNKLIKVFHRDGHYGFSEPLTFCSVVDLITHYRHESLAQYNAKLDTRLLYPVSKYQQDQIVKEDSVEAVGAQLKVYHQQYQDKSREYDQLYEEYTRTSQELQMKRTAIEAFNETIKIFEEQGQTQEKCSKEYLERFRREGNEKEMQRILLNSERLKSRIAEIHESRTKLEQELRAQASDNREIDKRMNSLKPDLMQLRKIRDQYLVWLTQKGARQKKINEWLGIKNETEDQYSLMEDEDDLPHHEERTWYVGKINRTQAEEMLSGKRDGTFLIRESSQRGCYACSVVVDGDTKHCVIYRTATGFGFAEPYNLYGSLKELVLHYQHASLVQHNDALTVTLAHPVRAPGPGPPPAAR
T6 sequence (P23726 whole entry): as the sequence (P23726 whole entry, the tested form may be a part) above
T2 sequence (P07333 20-972): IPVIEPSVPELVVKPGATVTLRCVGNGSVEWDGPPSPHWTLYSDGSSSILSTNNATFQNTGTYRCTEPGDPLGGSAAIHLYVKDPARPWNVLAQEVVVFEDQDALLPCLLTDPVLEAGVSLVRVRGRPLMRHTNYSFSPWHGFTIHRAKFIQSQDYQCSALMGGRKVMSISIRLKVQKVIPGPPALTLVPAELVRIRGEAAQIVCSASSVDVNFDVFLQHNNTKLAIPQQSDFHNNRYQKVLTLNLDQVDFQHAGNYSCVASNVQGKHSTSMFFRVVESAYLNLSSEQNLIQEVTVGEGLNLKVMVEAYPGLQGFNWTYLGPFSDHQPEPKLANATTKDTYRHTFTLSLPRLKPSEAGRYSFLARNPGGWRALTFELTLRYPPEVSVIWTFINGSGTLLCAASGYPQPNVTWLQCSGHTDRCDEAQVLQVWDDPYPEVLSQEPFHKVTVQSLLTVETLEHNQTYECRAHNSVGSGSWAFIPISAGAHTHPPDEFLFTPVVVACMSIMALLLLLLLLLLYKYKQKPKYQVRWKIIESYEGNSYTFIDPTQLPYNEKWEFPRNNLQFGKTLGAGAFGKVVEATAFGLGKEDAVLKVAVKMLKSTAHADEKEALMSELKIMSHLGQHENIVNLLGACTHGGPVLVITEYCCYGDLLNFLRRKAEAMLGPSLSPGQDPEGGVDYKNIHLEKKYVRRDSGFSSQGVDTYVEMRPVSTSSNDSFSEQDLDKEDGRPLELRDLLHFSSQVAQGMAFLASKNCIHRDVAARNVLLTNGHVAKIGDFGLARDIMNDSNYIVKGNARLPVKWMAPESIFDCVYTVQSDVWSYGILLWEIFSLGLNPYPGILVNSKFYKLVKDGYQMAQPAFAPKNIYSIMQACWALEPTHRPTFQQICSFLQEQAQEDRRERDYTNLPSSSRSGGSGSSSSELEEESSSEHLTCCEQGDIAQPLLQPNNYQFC
T5 sequence (P23727 whole entry, the tested form may be a part): as the sequence (P23727 whole entry) above
T3 sequence (P23727 whole entry): as above
T3 sequence (P32871 whole entry partner): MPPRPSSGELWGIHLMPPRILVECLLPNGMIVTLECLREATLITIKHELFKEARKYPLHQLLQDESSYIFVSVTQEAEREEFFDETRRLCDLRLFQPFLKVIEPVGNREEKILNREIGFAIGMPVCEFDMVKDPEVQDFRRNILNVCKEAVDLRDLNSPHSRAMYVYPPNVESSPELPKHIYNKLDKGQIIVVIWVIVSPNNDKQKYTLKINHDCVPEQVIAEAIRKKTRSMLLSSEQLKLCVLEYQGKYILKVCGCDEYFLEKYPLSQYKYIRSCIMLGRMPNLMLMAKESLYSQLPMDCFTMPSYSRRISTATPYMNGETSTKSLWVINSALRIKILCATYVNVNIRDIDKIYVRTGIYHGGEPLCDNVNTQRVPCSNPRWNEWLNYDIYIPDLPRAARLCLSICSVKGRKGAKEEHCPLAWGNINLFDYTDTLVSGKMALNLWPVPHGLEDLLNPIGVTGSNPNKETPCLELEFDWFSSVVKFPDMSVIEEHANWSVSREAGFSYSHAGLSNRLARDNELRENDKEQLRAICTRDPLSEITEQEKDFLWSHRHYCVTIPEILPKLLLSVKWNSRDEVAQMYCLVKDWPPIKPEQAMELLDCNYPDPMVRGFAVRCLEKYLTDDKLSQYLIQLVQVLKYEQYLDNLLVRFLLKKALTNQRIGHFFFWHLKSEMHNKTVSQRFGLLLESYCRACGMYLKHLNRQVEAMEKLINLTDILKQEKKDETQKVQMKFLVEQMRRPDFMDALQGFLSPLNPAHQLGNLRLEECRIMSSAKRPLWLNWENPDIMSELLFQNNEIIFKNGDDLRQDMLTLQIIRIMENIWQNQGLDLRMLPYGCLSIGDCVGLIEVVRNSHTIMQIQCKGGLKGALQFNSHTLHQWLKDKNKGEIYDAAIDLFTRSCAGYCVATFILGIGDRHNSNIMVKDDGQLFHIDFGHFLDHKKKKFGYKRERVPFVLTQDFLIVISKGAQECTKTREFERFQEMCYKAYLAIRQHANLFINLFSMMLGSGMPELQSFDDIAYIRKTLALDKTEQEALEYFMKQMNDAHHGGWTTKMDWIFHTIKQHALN

A R D I M R D S N Y I S K G S T F (ARDIMRDSNYISKGSTF) [Peptide Y587, 17 amino acid phosphopeptide around the second major tyrosine phosphorylation site in the PDGF β-receptor]
binding of baculovirus expressed p85α to the peptide column (p85α [1]; Sf9 cell lysate, SDS-PAGE of bound proteins): bind both columns to a similar extent

p110: bovine PI3-kinase 110 kD subunit, 1068 amino acids, calculated molecular mass 124,247
PI3-kinase activity of anti-p110 immunoprecipitates [2]: no activity above that present in control immunoprecipitates | PI3-kinase activity of immunoprecipitates [3]: significant levels of PI3-kinase activity | association of PI3-kinase activity with CSF-1 receptor (CSF-1 receptor): No PI3-kinase activity associates

D M S K D E S V D Y V P M L D M K [Y751 phosphopeptide]
PI3-kinase activity removed from Mono Q peaks 1 or peak 2 by the column (bovine brain PI3-kinase): > 90% | binding of baculovirus expressed p85α to the peptide column (p85α [1]): bind both columns to a similar extent

partially purified bovine brain PI3-kinase (p85α/p110 complex) (from UniProt P23727 2-724; P32871 1-1068) (enzyme)
PI3-kinase activity removed by the column (Y751 phosphopeptide): > 90%

p85α: 85 kD subunit of PI3-kinase, baculovirus expressed
PI3-kinase activity of immunoprecipitates [3]: inactive | association of PI3-kinase activity with CSF-1 receptor (CSF-1 receptor): No PI3-kinase activity associates

B1: p110-N: GST fusion of human p110 fragment αα1-128 (protein)
chain: MPPRPSSGELWGIHLMPPRILVECLLPNGMIVTLECLREATLITIKHELFKEARKYPLHQLLQDESSYIFVSVTQEAEREEFFDETRRLCDLRLFQPFLKVIEPVGNREEKILNREIGFAIGMPVCEF
modifications: left off: a dimerising Fc or GST
ability of p110 fragment to bind p85α subunit (p85α [4]): capable of binding | ability of p110 fragment to bind p85β subunit (p85β): capable of binding

B2: amino acids 19-110 of human p10: domain of human p110, amino acids 19-110, from deletion mutants of p110-N (protein, UniProt P42336 19-110, looked up, fragment)
chain: RILVECLLPNGMIVTLECLREATLITIKHELFKEARKYPLHQLLQDESSYIFVSVTQEAEREEFFDETRRLCDLRLFQPFLKVIEPVGNREE
ability of p110 fragment to bind p85α subunit (p85α [4]): sufficient to associate with the p85 subunits | ability of p110 fragment to bind p85β subunit (p85β): sufficient to associate with the p85 subunits

B3: human p110 19-110 with a further 20 amino acids removed from the carboxy terminus (other)
chain: RILVECLLPNGMIVTLECLREATLITIKHELFKEARKYPLHQLLQDESSYIFVSVTQEAEREEFFDETRRLC
notes: Limits 19-90 are calculated from 'Removal of a further 20 amino acids'
binding result (bovine p85α): no binding | binding result (bovine p85β): no binding

B4: human p110 19-110 with a further 20 amino acids removed from the amino terminus (other)
chain: EATLITIKHELFKEARKYPLHQLLQDESSYIFVSVTQEAEREEFFDETRRLCDLRLFQPFLKVIEPVGNREE
notes: Limits 39-110 are calculated from 'Removal of a further 20 amino acids'
binding result (bovine p85α): no binding | binding result (bovine p85β): no binding
